Patent publication US20240092841A1

Tests used:
Assay in all cases: co-IP with agarose-bound AvFc from A549 whole-cell lysate, mass spectrometry
[1] = biological target: Solute carrier family 12 member 7 (human) (UniProt Q9Y666)
[2] = biological target: Protocadherin Fat 1 (human) (UniProt Q14517)
[3] = biological target: Galectin-3-binding protein (human) (UniProt Q08380)
Plexin-B2 (human) = Plexin-B2 (human) (UniProt O15031)
[4] = biological target: Tetratricopeptide repeat protein 17 (human) (UniProt Q96AE7)
[5] = biological target: Sodium/potassium-transporting ATPase subunit beta-1 (human) (UniProt P05026)
[6] = biological target: T-complex protein 1 subunit theta (human) (UniProt P50990)
Integrin alpha-3 (human) = Integrin alpha-3 (human) (UniProt P26006)
[7] = biological target: Endothelial protein C receptor (human) (UniProt Q9UNN8)
[8] = biological target: Transmembrane and TPR repeat-containing protein 3 (human) (UniProt Q6ZXV5)
[9] = biological target: Transmembrane protein 106B (human) (UniProt Q9NUM4)
[10] = biological target: Laminin subunit beta-1 (human) (UniProt P07942)
[11] = biological target: Insulin-like growth factor 1 receptor (human) (UniProt P08069)
[12] = biological target: Cation-independent mannose-6-phosphate receptor (human) (UniProt P11717)
[13] = biological target: Cation-dependent mannose-6-phosphate receptor (human) (UniProt P20645)
[14] = biological target: Contactin-associated protein-like 3 (human) (UniProt Q9BZ76)
[15] = biological target: Solute carrier family 2, facilitated glucose transporter member 1 (human) (UniProt P11166)
Chain of UniProt P11166 (P11166 whole entry): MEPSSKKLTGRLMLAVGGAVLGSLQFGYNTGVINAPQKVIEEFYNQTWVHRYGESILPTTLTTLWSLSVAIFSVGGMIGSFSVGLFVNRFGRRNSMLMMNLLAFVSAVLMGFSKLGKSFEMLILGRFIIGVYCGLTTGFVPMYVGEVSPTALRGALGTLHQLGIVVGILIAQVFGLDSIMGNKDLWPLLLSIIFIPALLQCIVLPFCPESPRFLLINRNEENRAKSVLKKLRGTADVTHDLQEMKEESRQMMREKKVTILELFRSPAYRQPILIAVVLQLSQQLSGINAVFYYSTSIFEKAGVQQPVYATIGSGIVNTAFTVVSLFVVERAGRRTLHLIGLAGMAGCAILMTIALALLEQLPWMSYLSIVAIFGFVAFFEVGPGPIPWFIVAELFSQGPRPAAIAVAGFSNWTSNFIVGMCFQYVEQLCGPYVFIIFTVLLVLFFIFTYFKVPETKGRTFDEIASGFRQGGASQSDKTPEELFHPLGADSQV

Integrin beta-5 (human) = Integrin beta-5 (human) (UniProt P18084)
Chain of UniProt P18084 (P18084 24-799 limits assumed): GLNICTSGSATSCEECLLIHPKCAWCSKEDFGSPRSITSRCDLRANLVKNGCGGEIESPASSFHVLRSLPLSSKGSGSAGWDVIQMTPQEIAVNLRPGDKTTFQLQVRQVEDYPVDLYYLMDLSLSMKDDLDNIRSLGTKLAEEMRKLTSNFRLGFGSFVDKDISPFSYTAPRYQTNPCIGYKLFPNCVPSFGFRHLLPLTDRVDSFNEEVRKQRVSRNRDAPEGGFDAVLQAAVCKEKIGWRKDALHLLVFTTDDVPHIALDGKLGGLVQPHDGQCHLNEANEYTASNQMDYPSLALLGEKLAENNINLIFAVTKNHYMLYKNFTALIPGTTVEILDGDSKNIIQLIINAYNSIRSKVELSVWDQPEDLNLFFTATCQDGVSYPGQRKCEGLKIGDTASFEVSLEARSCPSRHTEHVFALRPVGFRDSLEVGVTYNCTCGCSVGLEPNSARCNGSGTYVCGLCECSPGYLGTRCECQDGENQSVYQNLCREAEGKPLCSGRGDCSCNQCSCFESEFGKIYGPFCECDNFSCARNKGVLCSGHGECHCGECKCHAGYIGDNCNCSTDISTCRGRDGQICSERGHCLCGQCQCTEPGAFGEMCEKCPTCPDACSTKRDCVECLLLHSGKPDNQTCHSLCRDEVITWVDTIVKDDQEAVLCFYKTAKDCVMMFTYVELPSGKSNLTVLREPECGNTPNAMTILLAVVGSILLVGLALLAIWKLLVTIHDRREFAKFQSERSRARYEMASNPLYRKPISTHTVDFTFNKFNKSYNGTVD

[16] = biological target: Sortilin-related receptor (human) (UniProt Q92673)
Mucin-5AC (human) = Mucin-5AC (human) (UniProt P98088)
Erlin-2 (human) = Erlin-2 (human) (UniProt O94905)
[17] = biological target: Importin subunit beta-1 (human) (UniProt Q14974)
Exportin-1 (human) = Exportin-1 (human) (UniProt O14980)
[18] = biological target: Disintegrin and metalloproteinase domain-containing protein 9 (human) (UniProt Q13443)
Polycystin-2 (human) = Polycystin-2 (human) (UniProt Q13563)
Chain of UniProt Q13563 (Q13563 other isoform, or with tags, fused parts or gaps limits assumed): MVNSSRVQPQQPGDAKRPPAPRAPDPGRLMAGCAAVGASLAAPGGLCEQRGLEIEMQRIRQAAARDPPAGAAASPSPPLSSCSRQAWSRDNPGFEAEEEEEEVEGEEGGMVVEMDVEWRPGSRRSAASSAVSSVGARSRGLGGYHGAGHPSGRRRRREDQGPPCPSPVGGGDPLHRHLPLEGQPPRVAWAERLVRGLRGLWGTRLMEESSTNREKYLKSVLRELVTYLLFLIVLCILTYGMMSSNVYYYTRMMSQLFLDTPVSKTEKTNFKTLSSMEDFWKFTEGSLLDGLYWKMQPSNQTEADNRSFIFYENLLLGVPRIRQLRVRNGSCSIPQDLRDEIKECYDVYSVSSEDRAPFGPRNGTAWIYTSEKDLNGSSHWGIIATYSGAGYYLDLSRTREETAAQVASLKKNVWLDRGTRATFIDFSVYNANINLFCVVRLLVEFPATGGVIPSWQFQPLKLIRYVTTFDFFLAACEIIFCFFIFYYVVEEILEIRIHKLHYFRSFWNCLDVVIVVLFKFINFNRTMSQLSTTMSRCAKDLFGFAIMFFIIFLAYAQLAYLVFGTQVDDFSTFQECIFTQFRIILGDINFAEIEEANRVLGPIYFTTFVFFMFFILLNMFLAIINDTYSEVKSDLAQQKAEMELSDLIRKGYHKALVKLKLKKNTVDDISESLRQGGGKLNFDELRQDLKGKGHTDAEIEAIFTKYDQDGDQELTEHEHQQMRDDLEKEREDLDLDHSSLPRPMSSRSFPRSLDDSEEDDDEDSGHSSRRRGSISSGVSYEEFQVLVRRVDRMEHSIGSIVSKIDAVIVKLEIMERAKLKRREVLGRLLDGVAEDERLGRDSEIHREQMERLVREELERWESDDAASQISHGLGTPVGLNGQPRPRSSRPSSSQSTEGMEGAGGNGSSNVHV

Agrin (human) = Agrin (human) (UniProt O00468)
[19] = biological target: Metal transporter CNNM4 (human) (UniProt Q6P4Q7)
[20] = biological target: Isoform 6 of Myoferlin (human) (UniProt Q9NZM1)
Integrin alpha-2 (human) = Integrin alpha-2 (human) (UniProt P17301)
[21] = biological target: Laminin subunit gamma-1 (human) (UniProt P11047)
Chain of UniProt P11047 (P11047 34-1609 limits assumed): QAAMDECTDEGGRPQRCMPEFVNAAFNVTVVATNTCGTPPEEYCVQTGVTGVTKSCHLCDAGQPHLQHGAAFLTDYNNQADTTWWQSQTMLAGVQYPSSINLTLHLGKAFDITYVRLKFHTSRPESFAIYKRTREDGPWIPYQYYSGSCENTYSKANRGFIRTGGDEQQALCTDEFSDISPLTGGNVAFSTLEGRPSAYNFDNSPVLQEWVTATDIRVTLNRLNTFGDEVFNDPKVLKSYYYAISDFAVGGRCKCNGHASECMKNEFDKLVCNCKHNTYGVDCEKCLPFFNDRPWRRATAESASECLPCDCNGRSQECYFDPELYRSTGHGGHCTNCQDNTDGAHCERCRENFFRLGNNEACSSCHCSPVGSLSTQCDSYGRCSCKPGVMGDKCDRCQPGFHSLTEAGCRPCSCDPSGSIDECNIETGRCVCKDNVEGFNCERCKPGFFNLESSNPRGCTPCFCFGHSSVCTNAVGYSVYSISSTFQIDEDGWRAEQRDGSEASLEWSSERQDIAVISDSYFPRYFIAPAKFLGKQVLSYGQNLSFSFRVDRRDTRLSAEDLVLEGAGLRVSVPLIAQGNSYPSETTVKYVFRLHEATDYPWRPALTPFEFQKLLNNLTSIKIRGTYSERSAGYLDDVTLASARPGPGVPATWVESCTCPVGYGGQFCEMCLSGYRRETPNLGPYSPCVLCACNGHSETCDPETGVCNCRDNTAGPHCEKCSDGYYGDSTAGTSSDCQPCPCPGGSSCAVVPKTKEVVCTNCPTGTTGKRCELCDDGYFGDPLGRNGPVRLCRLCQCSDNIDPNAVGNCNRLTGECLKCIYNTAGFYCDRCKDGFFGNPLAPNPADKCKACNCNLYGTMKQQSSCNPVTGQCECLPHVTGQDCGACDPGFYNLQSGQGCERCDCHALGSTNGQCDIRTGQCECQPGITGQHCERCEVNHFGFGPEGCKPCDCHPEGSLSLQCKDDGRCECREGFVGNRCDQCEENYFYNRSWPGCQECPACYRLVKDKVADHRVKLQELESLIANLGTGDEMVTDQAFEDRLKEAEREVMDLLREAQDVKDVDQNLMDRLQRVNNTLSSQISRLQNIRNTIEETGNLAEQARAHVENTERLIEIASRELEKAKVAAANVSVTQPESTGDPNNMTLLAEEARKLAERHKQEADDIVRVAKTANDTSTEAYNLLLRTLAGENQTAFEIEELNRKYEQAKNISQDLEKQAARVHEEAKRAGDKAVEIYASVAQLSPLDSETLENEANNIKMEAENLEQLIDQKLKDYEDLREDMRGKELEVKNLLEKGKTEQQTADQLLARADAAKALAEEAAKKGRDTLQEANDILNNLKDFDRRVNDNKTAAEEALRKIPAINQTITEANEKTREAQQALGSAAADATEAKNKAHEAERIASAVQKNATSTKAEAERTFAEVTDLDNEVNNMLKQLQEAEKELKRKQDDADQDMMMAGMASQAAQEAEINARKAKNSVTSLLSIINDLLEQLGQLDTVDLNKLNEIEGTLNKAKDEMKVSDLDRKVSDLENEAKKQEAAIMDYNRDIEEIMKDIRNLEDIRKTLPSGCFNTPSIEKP

Integrin alpha-1 (human) = Integrin alpha-1 (human) (UniProt P56199)
[22] = biological target: Multidrug resistance-associated protein 1 (human) (UniProt P33527)
Attractin (human) = Attractin (human) (UniProt O75882)
Chain of UniProt O75882 (O75882 84-1429 limits assumed): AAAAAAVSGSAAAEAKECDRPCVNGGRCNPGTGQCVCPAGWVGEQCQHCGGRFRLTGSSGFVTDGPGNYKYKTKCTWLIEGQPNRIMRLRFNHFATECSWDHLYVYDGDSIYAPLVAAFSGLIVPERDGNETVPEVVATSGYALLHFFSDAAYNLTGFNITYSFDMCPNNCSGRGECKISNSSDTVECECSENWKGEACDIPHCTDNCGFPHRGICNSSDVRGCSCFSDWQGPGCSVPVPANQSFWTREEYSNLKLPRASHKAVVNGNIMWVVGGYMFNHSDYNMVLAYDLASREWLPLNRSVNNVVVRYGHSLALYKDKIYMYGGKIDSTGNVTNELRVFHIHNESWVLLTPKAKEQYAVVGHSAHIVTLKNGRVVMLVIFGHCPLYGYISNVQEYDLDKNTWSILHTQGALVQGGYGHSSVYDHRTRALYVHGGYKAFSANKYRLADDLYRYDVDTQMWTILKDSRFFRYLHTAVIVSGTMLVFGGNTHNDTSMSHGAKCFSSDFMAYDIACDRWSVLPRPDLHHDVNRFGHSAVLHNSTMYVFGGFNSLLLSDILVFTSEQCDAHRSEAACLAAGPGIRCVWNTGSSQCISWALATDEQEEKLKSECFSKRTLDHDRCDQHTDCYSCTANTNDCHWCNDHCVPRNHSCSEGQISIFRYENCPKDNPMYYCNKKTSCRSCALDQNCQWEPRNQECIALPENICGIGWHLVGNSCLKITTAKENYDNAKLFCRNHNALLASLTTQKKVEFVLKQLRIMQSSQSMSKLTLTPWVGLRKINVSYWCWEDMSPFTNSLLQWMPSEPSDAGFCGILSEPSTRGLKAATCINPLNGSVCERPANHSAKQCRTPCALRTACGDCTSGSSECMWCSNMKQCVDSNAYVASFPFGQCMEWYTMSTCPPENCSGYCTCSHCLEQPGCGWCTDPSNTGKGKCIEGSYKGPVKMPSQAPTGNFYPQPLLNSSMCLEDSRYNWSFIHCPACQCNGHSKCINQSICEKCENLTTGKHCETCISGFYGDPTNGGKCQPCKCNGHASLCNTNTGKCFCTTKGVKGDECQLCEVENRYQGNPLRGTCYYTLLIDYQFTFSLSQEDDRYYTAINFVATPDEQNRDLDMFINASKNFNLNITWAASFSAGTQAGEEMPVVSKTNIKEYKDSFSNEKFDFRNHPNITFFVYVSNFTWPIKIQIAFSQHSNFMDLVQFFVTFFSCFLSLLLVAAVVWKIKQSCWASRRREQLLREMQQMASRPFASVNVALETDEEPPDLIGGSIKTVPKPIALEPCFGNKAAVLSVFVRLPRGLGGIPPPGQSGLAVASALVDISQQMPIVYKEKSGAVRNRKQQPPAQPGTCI

Integrin alpha-5 (human) = Integrin alpha-5 (human) (UniProt P08648)
[23] = biological target: Tetratricopeptide repeat protein 13 (human) (UniProt Q8NBP0)
[24] = biological target: Neutral amino acid transporter B (0) (human) (UniProt Q15758)
Erlin-1 (human) = Erlin-1 (human) (UniProt O75477)
[25] = biological target: Transmembrane protein 2 (human) (UniProt Q9UHN6)
Integrin alpha-V (human) = Integrin alpha-V (human) (UniProt P06756)

With Avaren-Fc (AvFc) (Fc fusion) the Percentage of Total Spectra (%) [1] was 0.021%, the Percentage of Total Spectra (%) [2] was 0.12% and the Percentage of Total Spectra (%) [3] was 0.07%. It also gave a Percentage of Total Spectra (%) (Plexin-B2 (human)) of 0.12%, a Percentage of Total Spectra (%) [4] of 0.13% and a Percentage of Total Spectra (%) [5] of 0.056%. It also gave a Percentage of Total Spectra (%) [6] of 0.091%, a Percentage of Total Spectra (%) (Integrin alpha-3 (human)) of 0.15% and a Percentage of Total Spectra (%) [7] of 0.014%. For the same substance, the Percentage of Total Spectra (%) [8] was 0.11%, the Percentage of Total Spectra (%) [9] was 0.098% and the Percentage of Total Spectra (%) [10] was 0.41%. The Percentage of Total Spectra (%) [11] was 0.091%, the Percentage of Total Spectra (%) [12] was 0.2% and the Percentage of Total Spectra (%) [13] was 0.028%. For the same substance, the Percentage of Total Spectra (%) [14] was 0.11%, the Percentage of Total Spectra (%) [15] was 0.007% and the Percentage of Total Spectra (%) (Integrin beta-5 (human)) was 0.11%. It also gave a Percentage of Total Spectra (%) [16] of 0.12%, a Percentage of Total Spectra (%) (Mucin-5AC (human)) of 0.21% and a Percentage of Total Spectra (%) (Erlin-2 (human)) of 0.15%. For the same substance, the Percentage of Total Spectra (%) [17] was 0.056%, the Percentage of Total Spectra (%) (Exportin-1 (human)) was 0.056% and the Percentage of Total Spectra (%) [18] was 0.11%. It also gave a Percentage of Total Spectra (%) (Polycystin-2 (human)) of 0.17%, a Percentage of Total Spectra (%) (Agrin (human)) of 0.21% and a Percentage of Total Spectra (%) [19] of 0.091%. The Percentage of Total Spectra (%) [20] was 0.17%, the Percentage of Total Spectra (%) (Integrin alpha-2 (human)) was 0.11% and the Percentage of Total Spectra (%) [21] was 0.36%. For the same substance, the Percentage of Total Spectra (%) (Integrin alpha-1 (human)) was 0.021%, the Percentage of Total Spectra (%) [22] was 0.07% and the Percentage of Total Spectra (%) (Attractin (human)) was 0.084%. For the same substance, the Percentage of Total Spectra (%) (Integrin alpha-5 (human)) was 0.035%, the Percentage of Total Spectra (%) [23] was 0.13% and the Percentage of Total Spectra (%) [24] was 0.014%. The Percentage of Total Spectra (%) (Erlin-1 (human)) was 0.11%, the Percentage of Total Spectra (%) [25] was 0.11% and the Percentage of Total Spectra (%) (Integrin alpha-V (human)) was 0.15%.
